Laboratory results taken from PMC7337384 (bioRxiv, 2020).

Target: T1, MERS-CoV receptor-binding domain fused to the Fc domain of human IgG1 (MERS-CoV, UniProt K9N5Q8 381-587)
T1 sequence: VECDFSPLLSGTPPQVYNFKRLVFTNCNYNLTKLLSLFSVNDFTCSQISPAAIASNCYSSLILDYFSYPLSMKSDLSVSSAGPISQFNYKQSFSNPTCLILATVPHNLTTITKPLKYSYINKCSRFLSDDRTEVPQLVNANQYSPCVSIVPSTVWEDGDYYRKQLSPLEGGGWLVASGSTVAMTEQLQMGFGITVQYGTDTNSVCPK
Assay: SPR

B1: soluble monomeric human ACE2-NN (enzymatically inactive human ACE2 lacking its active-site histidines) (domain or fragment)
chain: QSTIEEQAKTFLDKFNHEAEDLFYQSSLASWNYNTNITEENVQNMNNAGDKWSAFLKEQSTLAQMYPLQEIQNLTVKLQLQALQQNGSSVLSEDKSKRLNTILNTMSTIYSTGKVCNPDNPQECLLLEPGLNEIMANSLDYNERLWAWESWRSEVGKQLRPLYEEYVVLKNEMARANHYEDYGDYWRGDYEVNGVDGYDYSRGQLIEDVEHTFEEIKPLYEHLHAYVRAKLMNAYPSYISPIGCLPAHLLGDMWGRFWTNLYSLTVPFGQKPNIDVTDAMVDQAWDAQRIFKEAEKFFVSVGLPNMTQGFWENSMLTDPGNVQKAVCHPTAWDLGKGDFRILMCTKVTMDDFLTAHNEMGNIQYDMAYAAQPFLLRNGANEGFHEAVGEIMSLSAATPKHLKSIGLLSPDFQEDNETEINFLLKQALTIVGTLPFTYMLEKWRWMVFKGEIPKDQWMKKWWEMKREIVGVVEPVPHDETYCDPASLFHVSNDYSFIRYYTRTLYQFQFQEALCQAAKHEGPLHKCDISNSTEAGQKLFNMLRLGKSEPWTLALENVVGAKNMNVRPLLNYFEPLFTWLKDQNKNSFVGWSTDWSPYEPEA
- Kd: > 35 µM
